Test [1] concerns the target Ferredoxin:NADP+ oxidoreductase (FNR), endogenous, complex-associated (C. reinhardtii (endogenous in strain cc124)) (UniProt P53991).
The target in test [2] is Ferredoxin:NADP+ oxidoreductase (FNR), C. reinhardtii, recombinant soluble (C. reinhardtii) (UniProt P53991).

In test [1], “Ferredoxin 1 (FDX1), C. reinhardtii (natural protein)” yielded a light-dependent NADPH production rate with FDX1 relative to FDX2 (FDX1/FDX2), PSI–FNR fractions (complex-associated FNR), 4 µM FDX of 23 fold. Further, the light-dependent NADPH production rate with FDX1 relative to FDX2 (FDX1/FDX2), PSI fractions with added soluble FNR (0.5 µM), 4 µM FDX in test [2] is 2.6 fold.

The values above are taken from article PMC5683061.
